This is an account of results in US20250064852A1 (University of Pennsylvania, published 2025).

Assay [1] concerns the target T1, human CD5 (human, UniProt P06127 25-495).
T1 construct: whole, on cells; also called primary target CD5
T1 sequence (looked up): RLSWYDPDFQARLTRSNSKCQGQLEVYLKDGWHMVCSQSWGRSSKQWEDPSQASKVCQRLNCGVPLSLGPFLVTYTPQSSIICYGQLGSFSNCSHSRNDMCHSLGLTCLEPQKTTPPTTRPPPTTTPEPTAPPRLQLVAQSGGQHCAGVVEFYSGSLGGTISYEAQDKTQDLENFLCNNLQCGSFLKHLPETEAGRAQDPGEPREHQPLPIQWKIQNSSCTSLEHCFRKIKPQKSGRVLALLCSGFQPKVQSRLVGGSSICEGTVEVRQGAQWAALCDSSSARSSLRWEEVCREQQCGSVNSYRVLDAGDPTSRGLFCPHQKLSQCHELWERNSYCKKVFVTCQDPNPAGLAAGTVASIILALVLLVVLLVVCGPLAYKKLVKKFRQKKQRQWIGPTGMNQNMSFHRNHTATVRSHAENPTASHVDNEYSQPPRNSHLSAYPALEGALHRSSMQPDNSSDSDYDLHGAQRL
In words: cell microarray (Retrogenix): labelled CAR T cells on fixed HEK293 cells expressing human membrane proteins; library and confirmation screen. The text has this: CART5 on- and off-targeting specificity analysis: For a library screen, CD5 KO CART5 cells were fluorescently labelled and screened for binding against fixed HEK293 cells/slides expressing 5828 human plasma membrane proteins and cell surface tethered human secreted proteins+398 human heterodimers in duplicates (18 slide sets, n=2 slides per slide set, 3.2×10⁷ cells/slide). In total, 22 primary hits (duplicate spots) were identified by analyzing fluorescence (Alexa Fluor 647 and ZsGreen1) on ImageQuant. There were a range of intensities (signal to background) from very weak to strong. A confirmation screen was performed by testing Mock KO UTD and CD5 KO CART5 cell binding against all 22 hits in duplicate on new slides. Library and confirmation screens as well as analyses were performed at Retrogenix, Charles River Laboratories.

In assay [2] the target is T2, recombinant human CD5 protein conjugated to a polyhistidine (His) tag at the C-terminus (Sino Biologicals); … (human, UniProt P06127 25-372).
T2 construct: Bought reagent; also called recombinant CD5 protein; not shown: C-terminal polyhistidine tag
T2 sequence (looked up): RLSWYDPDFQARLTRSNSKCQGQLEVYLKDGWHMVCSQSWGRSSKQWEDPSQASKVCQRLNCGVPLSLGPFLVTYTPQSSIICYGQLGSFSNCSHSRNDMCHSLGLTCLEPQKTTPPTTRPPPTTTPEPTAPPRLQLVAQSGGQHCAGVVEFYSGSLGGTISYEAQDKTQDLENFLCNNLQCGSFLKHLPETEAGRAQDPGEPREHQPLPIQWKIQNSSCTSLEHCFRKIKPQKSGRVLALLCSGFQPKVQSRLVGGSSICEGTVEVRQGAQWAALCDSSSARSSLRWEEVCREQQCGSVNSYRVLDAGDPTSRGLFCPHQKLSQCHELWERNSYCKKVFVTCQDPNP
In words: flow cytometry on CAR T cells, APC anti-6x His-tag secondary antibody. The source says:
General flow cytometry: Cells were resuspended in FACS staining buffer (phosphate buffered saline (PBS)+2% FBS) using one or more of the following antibodies: CD5 (UCHT2; BioLegend; Cat #300612), CD4, CD8 (RPA-T8; BD Biosciences; Cat #563795), CD45RA (L48; BD Biosciences; Cat #347723), CCR7 (G043H7; BioLegend; Cat #353214), PD1 (EH12.1; BD Biosciences; Cat #562516), LAG3 (3DS223H; Invitrogen; Cat #11-2239-42), CD3 (UCHT1; BD Biosciences; Cat #565119 or OKT3; BioLegend; Cat #317334), hCD45 (2D1; BioLegend; Cat #368522), or mCD45. CAR5 was detected by incubating cells with recombinant human CD5 protein conjugated to a polyhistidine (His) tag at the C-terminus (Sino Biologicals; Cat #11027-H08H) followed by an Allophycocyanin (APC) anti-6× His-tag secondary antibody (Abcam; Cat #ab72579). CARmeso was detected using a Biotin-SP goat anti-human F(ab′)₂ antibody (Jackson ImmunoResearch; Cat #109-066-097) followed by an R-Phycoerythrin (PE) streptavidin secondary antibody (Jackson ImmunoResearch; Cat #016-110-084). All changes in overall tumor or T cell counts reflected by absolute cell counts were determined using Flow-Count Fluorospheres (Beckman; Cat #754053). Cell viability was established using ViaKrome 808 Fixable Viability Dye (Beckman; Cat #C36628) and data were acquired on an LSRII Fortessa Cytometer (BD) or CytoFlex LX Flow Cytometer (Beckman). […]

B1: CD5-17H2L-3054 CAR (anti-CD5 chimeric antigen receptor, clone #17, heavy-to-light chain orientation) (other)
chain: GSEVQLVESGPGLVQPSQSLSITCTVSGFSLTNYDVHWVRQSPGKGLEWLGVIWNYGNTDYNAAFISRLSIRKDSSKSQVFFTMSSLQTPDTAIYYCARNHGDGYYNWYFDVWGTGTTVTVSSGGGGSGGGGSGGGGSNIVLTQSPSSLSESLGGKVTITCKASQDINKYIAWYQYKPGKGPRLLIHYTSTLQPGIPSRFSGSGSGRDYSFSISNLEPEDIATYYCLQYDNLWTFGGGTKLEIKSRTTTPAPRPPTPAPTIASQPLSLRPEACRPAAGGAVHTRGLDFACDIYIWAPLAGTCGVLLLSLVITLYCHMKRGRKKLLYIFKQPFMRPVQTTQEEDGCSCRFPEEEEGGCELTSRVKFSRSADAPAYQQGQNQLYNELNLGRREEYDVLDKRRGRDPEMGGKPRRKNPQEGLYNELQKDKMAEAYSEIGMKGERRRGKGHDGLYQGLSTATKDTYDALHMQALPPR
notes: also called CAR5; anti-CD5 CAR
Turning to B1, the binding result in assay [1] and in assay [2] was “binds” throughout.
